B1: AnkB_AI-c (aa 828–852) [human] / AnkB_MBD (AnkB ANK repeats only, aa 28–827) [human] (parent complex)
chain 1: TEKHKLNVPETMTEVLDVSDEEGDD
chain 2: KSDSNASFLRAARAGNLDKVVEYLKGGIDINTCNQNGLNALHLAAKEGHVGLVQELLGRGSSVDSATKKGNTALHIASLAGQAEVVKVLVKEGANINAQSQNGFTPLYMAAQENHIDVVKYLLENGANQSTATEDGFTPLAVALQQGHNQAVAILLENDTKGKVRLPALHIAARKDDTKSAALLLQNDHNADVQSKMMVNRTTESGFTPLHIAAHYGNVNVATLLLNRGAAVDFTARNGITPLHVASKRGNTNMVKLLLDRGGQIDAKTRDGLTPLHCAARSGHDQVVELLLERGAPLLARTKNGLSPLHMAAQGDHVECVKHLLQHKAPVDDVTLDYLTALHVAAHCGHYRVTKLLLDKRANPNARALNGFTPLHIACKKNRIKVMELLVKYGASIQAITESGLTPIHVAAFMGHLNIVLLLLQNGASPDVTNIRGETALHMAARAGQVEVVRCLLRNGALVDARAREEQTPLHIASRLGKTEIVQLLLQHMAHPDAATTNGYTPLHISAREGQVDVASVLLEAGAAHSLATKKGFTPLHVAAKYGSLDVAKLLLQRRAAADSAGKNGLTPLHVAAHYDNQKVALLLLEKGASPHATAKNGYTPLHIAAKKNQMQIASTLLNYGAETNIVTKQGVTPLHLASQEGHTDMVTLLLDKGANIHMSTKSGLTSLHLAAQEDKVNVADILTKHGADQDAHTKLGYTPLIVACHYGNVKMVNFLLKQGANVNAKTKNGYTPLHQAAQQGHTHIINVLLQHGAKPNATTANGNTALAIAKRLGYISVVDTLKVVTEEVTTTTTTI
B2: AnkG linker ΔAI-c (aa 861–920) [rat] / AnkG 38–855 (AnkG MBD-AI-c protein; MBD + partial AI-c) [rat] (parent complex)
chain 1: KASAPEKLSDGEYISDGEEGEDAITGDTDKYLGPQDLKELGDDSLPAEGYVGFSLGARSA
chain 2: KSDANASYLRAARAGHLEKALDYIKNGVDVNICNQNGLNALHLASKEGHVEVVSELLQREANVDAATKKGNTALHIASLAGQAEVVKVLVTNGANVNAQSQNGFTPLYMAAQENHLEVVRFLLDNGASQSLATEDGFTPLAVALQQGHDQVVSLLLENDTKGKVRLPALHIAARKDDTKAAALLLQNDTNADIESKMVVNRATESGFTPLHIAAHYGNINVATLLLNRAAAVDFTARNDITPLHVASKRGNANMVKLLLDRGAKIDAKTRDGLTPLHCGARSGHEQVVEMLLDRAAPILSKTKNGLSPLHMATQGDHLNCVQLLLQHNVPVDDVTNDYLTALHVAAHCGHYKVAKVLLDKKANPNAKALNGFTPLHIACKKNRIRVMELLLKHGASIQAVTESGLTPIHVAAFMGHVNIVSQLMHHGASPNTTNVRGETALHMAARSGQAEVVRYLVQDGAQVEAKAKDDQTPLHISARLGKADIVQQLLQQGASPNAATTSGYTPLHLSAREGHEDVAAFLLDHGASLSITTKKGFTPLHVAAKYGKLEVASLLLQKSASPDAAGKSGLTPLHVAAHYDNQKVALLLLDQGASPHAAAKNGYTPLHIAAKKNQMDIATSLLEYGADANAVTRQGIASVHLAAQEGHVDMVSLLLSRNANVNLSNKSGLTPLHLAAQEDRVNVAEVLVNQGAHVDAQTKMGYTPLHVGCHYGNIKIVNFLLQHSAKVNAKTKNGYTPLHQAAQQGHTHIINVLLQNNASPNELTVNGNTALAIARRLGYISVVDTLKVVTEEIMTTTTITEKHKMNVPETMNEVLDMS
B3: AnkB_AI-a peptide (aa 1623–1635) [human] / AnkB_MBD (AnkB ANK repeats only, aa 28–827) [human] (parent complex)
chain 1: HPPIVSEEDISVG
chain 2: B1 chain 2
B4: AnkB_AI-b (aa 865–896) [human] / AnkB 28–847 (MBD + partial AI-c) [human] (parent complex)
chain 1: EDLKELGDDSLPSSQFLDGMNYLRYSLEGGRS
chain 2: KSDSNASFLRAARAGNLDKVVEYLKGGIDINTCNQNGLNALHLAAKEGHVGLVQELLGRGSSVDSATKKGNTALHIASLAGQAEVVKVLVKEGANINAQSQNGFTPLYMAAQENHIDVVKYLLENGANQSTATEDGFTPLAVALQQGHNQAVAILLENDTKGKVRLPALHIAARKDDTKSAALLLQNDHNADVQSKMMVNRTTESGFTPLHIAAHYGNVNVATLLLNRGAAVDFTARNGITPLHVASKRGNTNMVKLLLDRGGQIDAKTRDGLTPLHCAARSGHDQVVELLLERGAPLLARTKNGLSPLHMAAQGDHVECVKHLLQHKAPVDDVTLDYLTALHVAAHCGHYRVTKLLLDKRANPNARALNGFTPLHIACKKNRIKVMELLVKYGASIQAITESGLTPIHVAAFMGHLNIVLLLLQNGASPDVTNIRGETALHMAARAGQVEVVRCLLRNGALVDARAREEQTPLHIASRLGKTEIVQLLLQHMAHPDAATTNGYTPLHISAREGQVDVASVLLEAGAAHSLATKKGFTPLHVAAKYGSLDVAKLLLQRRAAADSAGKNGLTPLHVAAHYDNQKVALLLLEKGASPHATAKNGYTPLHIAAKKNQMQIASTLLNYGAETNIVTKQGVTPLHLASQEGHTDMVTLLLDKGANIHMSTKSGLTSLHLAAQEDKVNVADILTKHGADQDAHTKLGYTPLIVACHYGNVKMVNFLLKQGANVNAKTKNGYTPLHQAAQQGHTHIINVLLQHGAKPNATTANGNTALAIAKRLGYISVVDTLKVVTEEVTTTTTTITEKHKLNVPETMTEVLDVSD

Variants of: B1
Assay: ITC; parent: 360 nM

Kd [µM] | Variant
3.9 | chain 1 L16Q
4.4 | chain 1 M12Q
2.7 | chain 1 N7K

Variants of: B1
Assay: ITC; parent: 360 nM
Remark: another data set of the same source

Kd [µM] | Variant
2.4 | chain 2 N568A

Variants of: B2
Assay: ITC; parent: 1.6e+03 nM

Kd [µM] | Variant
2.6 | chain 2 F104Q, chain 2 F137Q
3.9 | chain 2 I240Q, chain 2 L273Q

Variants of: B3
Assay: fluorescence polarisation; parent: 7.3e+03 nM

Kd [µM] | Variant
43.8 | chain 2 R10E, chain 2 R13E

Variants of: B4
Assay: ITC; parent: 2.7e+03 nM

Kd [µM] | Variant
16 | chain 1 Y22A

Variants of: B4
Assay: ITC; parent: 2.7e+03 nM
Remark: another data set of the same source

Kd [µM] | Variant
8.5 | chain 2 I240Q, chain 2 L273Q

— article PMC5779224 (2017)
